The text below walks through data of patent publication US20160296633A1.

Experiment [1] concerns the target human trophoblast cell-surface antigen (Trop-2) (human) (UniProt P09758). Put plainly: FACS on PC-3 cells.
For experiment [2] the target is unchanged. Put plainly: FACS on BxPC-3 cells.
Experiment [3] shares this target. Put plainly: FACS on Calu-3 cells.
Experiment [4] shares this target. Put plainly: FACS on Capan-1 cells.
Experiment [5] has the same target. Put plainly: FACS on COLO 205 cells.
The target is the same in experiment [6]. Put plainly: FACS on SK-MES-1 cells.
Experiment [7] has the same target. Put plainly: cell-based or functional assay.
The target is the same in experiment [8]. Put plainly: FACS on PC-3 cells; background 5.5.
For experiment [9] the target is unchanged. Put plainly: FACS on BxPC-3 cells; background 3.1.
The target is the same in experiment [10]. Put plainly: FACS on Calu-3 cells; background 4.7.
Experiment [11] has the same target. Put plainly: FACS on Capan-1 cells; background 5.0.
Experiment [12] has the same target. Put plainly: FACS on COLO 205 cells; background 4.5.
Experiment [13] has the same target. Put plainly: FACS on SK-MES-1 cells; background 3.5.
The target is the same in experiment [14]. Put plainly: flow cytometry, surface, Capan-1 cells.
Experiment [15] shares this target. Put plainly: flow cytometry, surface, NCI-N87 cells. (In general: A flow cytometer gives signals particle by particle.)
Experiment [16] addresses CD74 (invariant chain, Ii) (human) (UniProt P04233). Put plainly: flow cytometry, permeabilized Raji cells.
The target is the same in experiment [17]. Put plainly: flow cytometry, surface only, Raji cells.
For experiment [18] the target is unchanged. Put plainly: flow cytometry, permeabilized A-375 cells.
Experiment [19] shares this target. Put plainly: flow cytometry, permeabilized HuH-7 cells.
Experiment [20] has the same target. Put plainly: flow cytometry, surface only, A-375 cells.
Experiment [21] shares this target. Put plainly: flow cytometry, surface only, HuH-7 cells.
Experiment [22] shares this target. Put plainly: flow cytometry, permeabilized Hep-G2 cells.
The target is the same in experiment [23]. Put plainly: flow cytometry, permeabilized Hs746T cells.
The target is the same in experiment [24]. Put plainly: flow cytometry, surface only, Hep-G2 cells.
The target is the same in experiment [25]. Put plainly: flow cytometry, surface only, Hs746T cells.
The target is the same in experiment [26]. Put plainly: flow cytometry, permeabilized Capan-1 cells.
Experiment [27] has the same target. Put plainly: flow cytometry, permeabilized NCI-N87 cells.
The target is the same in experiment [28]. Put plainly: flow cytometry, surface only, Capan-1 cells.
For experiment [29] the target is unchanged. Put plainly: flow cytometry, surface only, NCI-N87 cells.

Chain of CD74 (invariant chain, Ii) (human) (P04233 whole entry, change not shown): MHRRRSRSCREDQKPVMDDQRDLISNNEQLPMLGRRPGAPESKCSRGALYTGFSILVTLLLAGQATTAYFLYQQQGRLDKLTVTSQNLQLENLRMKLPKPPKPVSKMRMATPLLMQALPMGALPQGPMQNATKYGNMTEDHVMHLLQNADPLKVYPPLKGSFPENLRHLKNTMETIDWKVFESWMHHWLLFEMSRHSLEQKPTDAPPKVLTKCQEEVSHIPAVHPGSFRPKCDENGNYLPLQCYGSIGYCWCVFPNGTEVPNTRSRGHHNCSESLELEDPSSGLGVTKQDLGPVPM
Chain of human trophoblast cell-surface antigen (Trop-2) (human) (P09758 27-323): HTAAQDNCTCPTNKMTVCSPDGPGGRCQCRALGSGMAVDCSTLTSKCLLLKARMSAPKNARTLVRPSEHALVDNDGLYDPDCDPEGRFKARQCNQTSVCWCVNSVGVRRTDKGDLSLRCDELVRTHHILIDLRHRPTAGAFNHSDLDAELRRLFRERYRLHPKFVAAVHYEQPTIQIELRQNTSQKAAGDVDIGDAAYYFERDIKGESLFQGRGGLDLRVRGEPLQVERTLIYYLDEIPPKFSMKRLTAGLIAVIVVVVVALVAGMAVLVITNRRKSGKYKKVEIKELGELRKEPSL

On to “humanized RS7 IgG (hRS7), anti-Trop-2 (antibody)”, for which the percent positive in experiment [1] is 73.6%; in experiment [2] it was 98.3%; in experiment [3], 99.6%; in [4], 94.2%; in experiment [5], 99.5%; in [6], 91.2%. In addition, the ADCC, specific lysis of BxPC-3 target cells by PBMCs (effector to target 100:1), antibody at 33.3 nM in [7] worked out at 8.5%. Moreover, the median fluorescence was found to be 46.2 in experiment [8]; 26.4 in [9]; 282 in experiment [10]; 100 in experiment [11]; 142 in experiment [12]; 44 in [13]. Moreover, the figures for the MFI (surface) in experiment [14] and in experiment [15] were 237 and 795, respectively.

Regarding “milatuzumab (hLL1), humanized anti-CD74 IgG1 (antibody)”, the MFI ratio hLL1:bkgd (surface and cytoplasmic) in experiment [16] was 28.6; in experiment [18] it was 30.8; in [19] it was 28.5; in experiment [22], 31.2; in experiment [23], 28.8; in [26], 49.6. In addition, the MFI ratio hLL1:bkgd (surface and cytoplasmic) in experiment [27] came out at 36.7. For the same substance, the MFI ratio hLL1:bkgd (surface) in experiment [17] was determined as 19.6; in [20], 5.3; in experiment [21], 1.6; in experiment [24] it was 1.5; in [25], 2.1; in experiment [28], 1.8. The MFI ratio hLL1:bkgd (surface) in experiment [29] was 1.3.
